Measurements taken from publication PMC12802913.

Tests used:
[1] = molecular target: GST fusion of CHD4 PHD1-2 (aa 364-506) (human) (UniProt Q14839); test: pull-down; GST-PHD1 or GST-PHD1-2 pre-bound to glutathione magnetic agarose beads; 100 ul of 50 nM nucleosome, 4°C overnight; 25 mM HEPES pH 7.4, 150 mM NaCl, 0.5 mM TCEP; bound nucleosome quantified by qPCR of the 601 DNA, normalised to input
CHD4 PHD1-2 (human) = test: pull-down (GST), qPCR; conditions: Pull-down: 25 mM HEPES pH 7.4, 150 mM NaCl, 0.5 mM TCEP, 4 C overnight, 50 nM nucleosome; NMR at 0 and 100 mM NaCl (buffer not in material)

Sequence of UniProt Q14839 (Q14839 364-506): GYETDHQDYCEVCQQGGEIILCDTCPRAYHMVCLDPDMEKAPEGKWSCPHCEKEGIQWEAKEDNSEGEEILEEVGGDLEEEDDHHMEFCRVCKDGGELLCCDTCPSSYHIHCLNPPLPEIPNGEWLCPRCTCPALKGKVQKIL

Substance | fold increase of pull-down over WT nucleosome [1] [fold] | binding signal (fold vs WT nucleosome) (CHD4 PHD1-2 (human))
([H3.3G33R]) nucleosome core particle (from UniProt P84243 1-136; P62805 1-103; P0C0S8 1-130; P62807 1-126) (complex) | > 2 | –
H3.3 G33R nucleosome, 601 DNA | – | > 2
